Measurements: patent US8153597B2, “Modulators of the ABC transporter family and methods for their use” (priority 2003, dated 2012)
Read-outs that look alike come from different tables or passages of the source.

Columns and labels:
[1] = test system: CFTR-mediated Cl− secretion; test: Ussing chamber: CFTR-mediated Cl− secretion (Isc) across polarized CFBE41o− human airway epithelial cells; type: cell-based
Protocol: These experiments were conducted in CFBE41o− cells stably expressing either wt-CFTR or ΔF508-CFTR and in parental (non-transfected ΔF508/ΔF508) CFBE41o− cells. To increase apical membrane expression of ΔF508-CFTR, cells were grown at 27° C. for 36 hours in accordance with methods set forth in Example 5. […] Parental CFBE41o− cells, and CFBE41o− cells stably expressing either wt-CFTR or ΔF508-CFTR were incubated at 27° C. in a CO2 incubator in the absence of antibiotics. Vehicle or PA14 bacteria (5×10^8 CFU/ml) were added to the apical side of the monolayers.
Monolayers grown on Transwell (6.5 mm diameter) or Snapwell (12 mm diameter) permeable supports, as described in Example 1, were mounted in an Ussing-type chamber (Jim's Instruments; Iowa City, Iowa or Physiologic Instruments; San Diego, Calif.) and bathed in solutions, pH 7.4 maintained at 37° C. and stirred by bubbling with 5% CO2/95% air. Short circuit current (Isc) was measured by voltage-clamping the transepithelial voltage across the monolayers to 0 mV with a voltage clamp (model VCC MC6, Physiologic Instruments, San Diego, Calif.). Current output from the clamp was digitized by an analog-to-digital converter (iWorx; Dover, N.H.). Data collection and analysis were done with LabScribe v1.6 Software (iWorx; Dover, N.H.). Stimulated Isc was measured after addition of 100 μM CPT-cAMP (Calu-3 and MDCK cells) or 20 μM forskolin (wt-CFTR CFBE41o− cells) to the apical and basolateral bath solution or 50 μM genistein (ΔF508-CFTR CFBE41o− cells) to the apical bath solution. Net stimulated Isc (ΔIsc) was calculated by subtracting the baseline Isc measured before stimulation from the peak Isc measured after stimulation. Glybenclamide (200 μM) was added to the apical bath solution to inhibit CFTR-mediated Isc.
CFBE41o− cells were bathed in solutions with a basolateral-to-apical Cl− gradient in the presence of amiloride (100 μM) in the apical bath solution to inhibit Na+ absorption through the epithelial Na+ channel (ENaC). […]

MDCK-GFP-MDR1 cells = type: cell-based, canine; settings: pre-treatment 60 min, then Dox (0, 1, 3, 5 or 10 μM) for 4 hrs at 37 C; buffer ˜5%
Description: The studies above indicate that CIF reduces the plasma membrane expression of P-glycoprotein (i.e. Pgp or multidrug resistance protein (MDR)), MRP2, BCRP and other members of the ABC transmembrane protein family, whose functions include the transport of small molecules across cell membranes. More specifically, members of the ABC transporter family function by preventing therapeutics including but not limited to anti-cancer therapies and antibiotics from accumulating in the central nervous system, and by conferring the observed “drug resistance” of numerous cancers. […]
MDCK-GFP-MDR1 cells, MDCK-C7 cells stably transfected with GFP-Pgp under the transcriptional control of human MDR1 promoter as described by Maitra et al. (Biochem J 2001 355:617-624) were used in these studies. […] Cell viability was then assessed using the CellTiter 96Queous One Solution Cell Proliferation assay. After incubating for 4 hours at 37° C., the absorbance was determined at 490 nm.

[2] = Epoxide hydrolase activity assay, degradation of (S)-NEPC; type: biochemical; settings: purified protein; 60 minute incubation period
Protocol: To assess whether Cif acts as an epoxide hydrolase, its ability to degrade the synthetic epoxide hydrolase substrate (2S,3S)-trans-3-Phenyl-2-oxiranylmethyl 4-nitrophenyl carbonate ((S)-NEPC) was assessed. This assay measures the production of the product p-nitrophenol, which is yellow in color and absorbs maximally at 405 nm.
Purified PA2934-His was assayed for its ability to degrade the epoxide hydrolase synthetic substrate (2S,3S)-trans-3-Phenyl-2-oxiranylmethyl 4-nitrophenyl carbonate ((S)-NEPC) (Sigma, St. Louis, Mo.). […] Degradation of (S)-NEPC was measured as an increase in absorbance at OD405 utilizing a Molecular Devices SpectraMax M2 plate reader. Reactions were normalized to controls lacking enzyme, accounting for spontaneous hydrolysis of the substrate.

wt-CFTR = test: Cell-surface biotinylation: apical membrane expression of wt-CFTR in canine (MDCK) cells; type: cell-based; settings: purified protein
Protocol: In these experiments two human cell lines endogenously expressing CFTR, Pgp, BCRP and MRP2, and polarized canine and rat cells stably expressing wild-type (wt)-CFTR and/or Pgp, were contacted with a pelleted fraction of either P. aeruginosa strain PA14 or eight different clinical isolates. Apical membrane expression of CFTR, Pgp, and MRP2 was measured by cell-surface biotinylation. Epithelial cells were then lysed and biotinylated proteins were isolated, separated and amounts of apical membrane expression of CFTR, PgP and MRP2 were determined.
Epithelial cell cultures were grown on Transwell permeable growth supports (24 mm diameter, 0.4 μm pore size; Corning Corporation, Corning, N.Y.: #3412). Apical membrane expression of CFTR, Pgp, MRP1, BCRP and MRP2 was measured by cell-surface biotinylation as described by Lisanti, et al. (J. Cell Biol. 1989 109:2117-2127) and Swiatecka-Urban et al. J. Biol. Chem. 2002 277(42):40099-105).
MDCK cells stably expressing GFP-wt-CFTR or GFP-ΔF508-CFTR fusion proteins were established and maintained in culture in a 5% CO2/95% air incubator at 37° C. in MEM complete medium containing 50 U/ml penicillin, 50 μg/ml streptomycin, 2 mM L-glutamine, 10% FBS, and 150 μg/ml G418. Addition of GFP to the N-terminus of CFTR has no effect on CFTR localization, trafficking, function as a Cl channel, or on its degradation. MDCK cells were seeded on Transwell permeable supports (0.2×10^6 on 6.5 mm and 24 mm diameter, 0.4 μm pore size; Corning Corporation; Corning, N.Y.) and grown in culture at 37° C. for 7-10 days. Under these conditions, MDCK cells become polarized. Sodium butyrate (5 mM; Sigma-Aldrich; St. Louis, Mo.) was added to the MDCK cell culture medium 16-18 hours before experiments to stimulate CFTR expression.
In these experiments, apical membrane proteins were biotinylated at 4° C. using a derivative of biotin (EZ-Link™ Sulfo-NHS-LC-Biotin: Pierce). […] Biotinylated CFTR, Pgp, BCRP and MRP-2 were analyzed by Western blotting using antibodies against CFTR, Pgp, and MRP-2, respectively. […]

With `O=C(O)c1ccc(/C=C2\SC(=S)N(c3cccc(C(F)(F)F)c3)C2=O)cc1` [CFTRinh-172, reference compound] the “inhibition of forskolin stimulated CFTR-mediated Cl− ion secretion” value [1] was ~50 μA/cm^2.

B1: PA2934-His: purified C-terminal penta-histidine tagged PA2934 (Cif, CFTR inhibitory factor; SEQ ID NO:1) expressed in E. coli (protein, listed as Pseudomonas aeruginosa)
chain: MILDRLCRGLLAGIALTFSLGGFAAEEFPVPNGFESAYREVDGVKLHYVKGGQGPLVMLVHGFGQTWYEWHQLMPELAKRFTVIAPDLPGLGQSEPPKTGYSGEQVAVYLHKLARQFSPDRPFDLVAHDIGIWNTYPMVVKNQADIARLVYMEAPIPDARIYRFPAFTAQGESLVWHFSFFAADDRLAETLIAGKERFFLEHFIKSHSSNTEVFSERLLDLYARSYAKPHSLNASFEYYRALNESVRQNAELAKTRLQMPTMTLAGGGHGGMGTFQLEQMKAYADDVEGHVLPGCGHWLPEECAAPMNRLVIDFLSRGR
modifications: C-terminal penta-His tag
In the case of B1, the “reduction in cell viability” value (MDCK-GFP-MDR1 cells) is reported as ~25%, the “epoxide hydrolase activity (degradation of (S)-NEPC, absorbance at 405 nm)” value [2] is reported as “capable of degrading this compound in a protein concentration dependent manner” and the “effect on apical expression of CFTR” value (wt-CFTR) is reported as “significantly decreases”. The “reduction of apical expression of CFTR” value (wt-CFTR; 60 minutes after treatment) was > 60%, the “reduction of apical expression of CFTR” value (wt-CFTR; at 90 minutes) was > 70% and the “inhibition of forskolin stimulated CFTR-mediated Cl− ion secretion” value ([1]; WT-CFBE cells, added to apical face, 50 μg PA2934-His, CFTRinh-172 5 μM) was ~30 μA/cm^2. For the same molecule, the “reduction of CFTR Cl− currents” value ([1]; WT-CFBE cells, relative to CFTRinh-172-sensitive current) was “approximately 60%”.
